Biological target: 개 인플루엔자 바이러스 H3N2 (Canine influenza virus H3N2)
Experiment: cell-based or functional assay

B1: 개 인플루엔자 바이러스 단일클론항체 3E2 (antibody, V domains shown)
VH: EVKLVESGGGLVQPGGSLRLSCATSGFTFTDYYMSWVRQPPGKALEWLGFIRNKANGYTTEYSASVKGRFTISRDNSQSILYLQMNTLRPEDSATYYCARDTPVARGVCLLGQGTLVTVSA
VL: DIVMTQSPSSLAVSAGEKVTMSCKSSQSLLNSRTRQNYLAWYQQKPGQSPKLLIYWASTRESGVPDRFTGSGSGTDFTLTISSVQAEDLAVYYCKQSYSLWTFGGGTKLEIK
HI titer (3E2 mAb 하이브리도마 상층액): 128
HI titer (3E2 mAb): 131000

Reference: KR20210053410A
